We go through 2 variants from article PMC13090976 (Cell Stress & Chaperones, 2026).

B1: human CHIP-TPR (residues 21-154) [human] / biotin-GSGSGP(pT)IEEVD [modified: biotin, printed before the first residue; phosphothreonine (pT; Thr636 in HSPA1A numbering); biotin, printed before the first residue; phosphothreonine (pT; … (parent complex)
chain 1: EKSPSAQELKEQGNRLFVGRKYPEAAACYGRAITRNPLVAVYYTNRALCYLKMQQHEQALADCRRALELDGQSVKAHFFLGQCQLEMESYDEAIANLQRAYSLAKEQRLNFGDDIPSALRIAKKKRWNSIEERR
chain 2: GSGSGPTIEEVD

The variants in the assay derive from B1. Description: biolayer interferometry; read off a plot.
With chain 1 G112S, the Kd is roughly 1 µM.

Consider chain 1 N45S, for which the Kd is roughly 6.6 µM.
